# Results as given in patent publication US7214519B2, “Screening method for identifying heme independent modulators of soluble guanylyl cyclase (sGC) activity using αβCys105 mutant sGC” (Board of Regents of the University of Texas System, priority 2003, dated 2007).
# Substitutions are numbered along the chain they refer to. Like-named read-outs stand apart in the source and are kept apart here.
# Columns and labels:
# αβ^Cys105 mutant sGC [1] = biological target: T1, αβ^Cys105 mutant sGC (Homo sapiens, UniProt Q02108+Q02153, H105C); assay: Assay of sGC activity ([32P]cGMP formation from GTP), purified αβ^Cys105 mutant enzyme; type: biochemical; conditions: for sensitivity to SNP after addition of hemin: absence of DTT
# T1 construct: made in house; host or cells: Sf9 cells (baculovirus)
# T1 sequence (Q02153 1-619 H105C): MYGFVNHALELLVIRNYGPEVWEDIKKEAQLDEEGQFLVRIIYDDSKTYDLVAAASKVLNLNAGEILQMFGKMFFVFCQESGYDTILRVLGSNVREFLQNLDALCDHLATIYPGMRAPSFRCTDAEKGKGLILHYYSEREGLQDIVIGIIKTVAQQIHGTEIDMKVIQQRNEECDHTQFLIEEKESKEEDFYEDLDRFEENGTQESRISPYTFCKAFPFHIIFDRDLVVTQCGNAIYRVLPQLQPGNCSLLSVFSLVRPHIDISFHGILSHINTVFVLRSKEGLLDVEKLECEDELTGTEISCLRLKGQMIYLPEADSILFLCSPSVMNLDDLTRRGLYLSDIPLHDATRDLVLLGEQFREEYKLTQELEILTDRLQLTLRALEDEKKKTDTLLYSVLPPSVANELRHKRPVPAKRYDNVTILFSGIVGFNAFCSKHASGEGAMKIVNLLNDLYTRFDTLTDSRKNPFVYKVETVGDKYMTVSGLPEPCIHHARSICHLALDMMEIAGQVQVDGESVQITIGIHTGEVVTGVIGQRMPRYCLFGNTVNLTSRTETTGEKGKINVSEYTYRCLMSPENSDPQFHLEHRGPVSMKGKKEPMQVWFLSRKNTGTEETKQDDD
# T1 sequence (Q02108 1-690): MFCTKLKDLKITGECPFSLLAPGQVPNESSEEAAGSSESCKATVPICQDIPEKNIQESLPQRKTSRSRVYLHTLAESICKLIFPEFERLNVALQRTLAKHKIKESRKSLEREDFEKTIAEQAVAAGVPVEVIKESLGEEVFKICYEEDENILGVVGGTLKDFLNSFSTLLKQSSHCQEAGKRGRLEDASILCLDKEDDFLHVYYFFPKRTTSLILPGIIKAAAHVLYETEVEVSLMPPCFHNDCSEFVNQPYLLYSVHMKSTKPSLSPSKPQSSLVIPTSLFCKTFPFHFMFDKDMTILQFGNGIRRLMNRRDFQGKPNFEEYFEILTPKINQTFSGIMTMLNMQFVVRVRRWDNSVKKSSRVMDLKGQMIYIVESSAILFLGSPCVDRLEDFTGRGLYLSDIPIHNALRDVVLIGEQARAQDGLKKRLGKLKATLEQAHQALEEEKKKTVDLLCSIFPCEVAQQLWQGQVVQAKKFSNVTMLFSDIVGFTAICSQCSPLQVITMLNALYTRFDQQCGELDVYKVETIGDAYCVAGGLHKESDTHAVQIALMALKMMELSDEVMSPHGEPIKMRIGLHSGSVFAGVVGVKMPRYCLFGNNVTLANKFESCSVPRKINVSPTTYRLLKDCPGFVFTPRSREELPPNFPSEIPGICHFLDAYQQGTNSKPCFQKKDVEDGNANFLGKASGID
# Description: (§1) sGC Expression and Purification. […] Purification of sGC was performed as described earlier (26), the disclosure of which is hereby incorporated herein by reference, with the following modifications. Cells were harvested 72 h post infection, resuspended in loading buffer (25 mM triethanolamine, pH 7.5. 10 glycerol, 4 mM MgCl2 and 1 mM phenylmethylsulfonyl fluoride, and 5 μg/ml each of pepstatin A, leupeptin, aprotinin, and chymostatin,) and lysed by sonication. The lysate was subjected to 100,000×g centrifugation for 1 h. The high-speed supernate was loaded on a 60 ml DEAE-Sepharose (Amersham Pharmacia Biotech) column and washed with 60 ml of loading buffer without protease inhibitors. The proteins were eluted with loading buffer containing 250 mM NaCl and the eluate was directly loaded on a 30 ml His-Bind resin (Novagen) column. The column was washed with 60 ml of loading buffer followed by 60 ml of loading buffer with 45 mM imidazole. The enzyme was eluted with 175 mM imidazole and 2 ml fractions were collected. […] The enzyme at this stage was approximately 90–95% pure. To remove imidazole, sGC-containing fractions were diluted 3 fold with 25 mM triethanolamine pH 7.5, loaded on a 2 ml Hi-Trap DEAE-Sepharose column (Amersham Pharmacia Biotech), washed with 10 ml of loading buffer and eluted with 25 mM triethanolamine pH 7.5, 250 mM NaCl, 10 glycerol, 4 mM MgCl2, 0.5 mM EDTA, 0.5 mM EGTA. The enzyme obtained at this stage (95% or greater purity) was used for experiments.
# (§2) Assay of sGC Activity. Enzyme activity was assayed by formation of [^32P] cGMP from α[^32P]GTP at 37° C. in a final volume of 100 μl. Incubation medium contained 50 mM triethanolamine-HCl buffer (pH 7.4), 1 mM 3-isobutyl-1-methylxanthine (IBMX), 1 mg/ml BSA. 1 mM cGMP, 3 mM MgCl2, 0.05 mg/ml creatine phosphokinase, 5 mM creatine phosphate, 0.1 mM EGTA. 200 μM GTP (about 10.000 cpm/pmol). The reaction was started by addition of the substrate (GTP) with or without activators. 1 mM DTT, GSH or cysteine were added to the incubation medium before the addition of GTP. Thiol concentration varied in some experiments as indicated. Samples containing 0.2 μg sGC were incubated for 10 or 15 min and the reaction was stopped by addition of 500 μl 150 mM zinc acetate and 500 μl 180 mM sodium carbonate. The pellet of zinc carbonate containing most of the unreacted GTP was removed by centrifugation and the supernatant fractions were loaded onto columns filled with 1 g of neutral alumina. Columns were then eluted with 10 ml 0.1 M Tris-HCl buffer (pH 7.5) and Cherenkov radiation in flow through plus eluate was counted in a LKB liquid scintillation spectrometer. Samples incubated in the absence of sGC were used as a negative control. The concentration of dimethylsulfoxide (DMSO) used as a vehicle for YC-1 was not higher than 0.1 and had no effect on sGC activity as determined previously.
# αβ^Cys105 mutant sGC [2] = biological target: T1, αβ^Cys105 mutant sGC; assay: Heme reconstitution of DTT-treated αβ^Cys105 enzyme followed by UV-Vis spectroscopy; type: binding; conditions: data not shown
# Description: UV-Vis Spectroscopy. All absorbance measurements were recorded with a dual-beam Cecil 9500 spectrophotometer at 25° C. […] Hemin stock solution (5 mM) was prepared in DMSO and was reduced by dilution in 25 mM TEA, pH 7.5 containing 5 mM DTT to a working solution of 500 μM. The reduced heme was kept under argon in a gas-tight vial during the reconstitution.
# The enzyme reconstituted with 10 μM hemin was subjected to gel filtration (after GF) or treated for 15 min with 50 μM NOC-7 (with NO) and the spectra recorded, as shown in FIG. 5D.
# wild type sGC [3] = biological target: T2, wild type sGC (Homo sapiens, UniProt Q02108+Q02153); assay: Assay of sGC activity ([32P]cGMP formation from GTP), purified wild type enzyme; type: biochemical
# T2 construct: made in house; host or cells: Sf9 cells (baculovirus)
# T2 sequence (Q02153 1-619): T1 sequence (Q02153 1-619 H105C) with C105H
# T2 sequence (Q02108 1-690): T1 sequence (Q02108 1-690)
# Description: as §1, §2
# [4] = biological target: T3, Sf9 cells expressing wild type sGC (Homo sapiens, UniProt Q02108+Q02153); assay: cGMP accumulation in intact Sf9 cells expressing wild type sGC; type: cell-based; conditions: basal, 0.5 mM IBMX
# T3 construct: expressed in transfected cells; host or cells: Sf9 cells infected with baculoviruses
# T3 sequence (Q02153 1-619): T1 sequence (Q02153 1-619 H105C) with C105H
# T3 sequence (Q02108 1-690): T1 sequence (Q02108 1-690)
# Description: Assay of cGMP Accumulation in Intact Cells. […] The reaction was terminated by addition of 50 μl of 1 M perchloric acid and cGMP was extracted on ice for 1 h. The extract was centrifuged, neutralized with 2M K2CO3 and used for cGMP determination by radioimmunoassay (9, 27). The pellet was dissolved in 0.1 M NaOH and used for protein assay by the method of Lowry (28).
# Accumulated cGMP was extracted and quantified as described in Materials and Methods. Values are shown as means±s.d. The differences in intracellular accumulation of cGMP in Sf9 cells expressing the wild type enzyme or the mutant form are discussed below.
# wild type sGC [5] = biological target: T2, wild type sGC; conditions: cited from earlier work
Substance,sensitivity to SNP after addition of hemin (αβ^Cys105 mutant sGC [1]; 1 μM hemin),"sensitivity to SNP after addition of hemin (αβ^Cys105 mutant sGC [1]; 10 μM hemin, data not shown)",NO-activation upon addition of hemin (αβ^Cys105 mutant sGC [1]; presence of 1 mM DTT),molar excess of reduced hemin at which binding is saturated (αβ^Cys105 mutant sGC [2]) [fold molar excess],"PPIX activation, fold (wild type sGC [3]; +DTT) [fold]","Specific activity (wild type sGC [3]; +NO (SNP), with DTT (1 mM)) [µmol/min/mg]","Specific activity (wild type sGC [3]; +NO (SNP), with DTT (1 mM), listed as wild type) [µmol/min/mg]","Specific activity (wild type sGC [3]; +NO, without DTT) [µmol/min/mg]","Specific activity (wild type sGC [3]; Basal, with DTT (1 mM)) [µmol/min/mg]","Specific activity (wild type sGC [3]; Basal, with DTT (1 mM), listed as Wild type) [µmol/min/mg]","Specific activity (wild type sGC [3]; Basal, with DTT (1 mM), listed as wild type) [µmol/min/mg]","Specific activity (wild type sGC [3]; Basal, without DTT) [µmol/min/mg]","Specific activity (wild type sGC [3]; Basal, without DTT, listed as Wild type) [µmol/min/mg]","PPIX activation, fold (wild type sGC [3]; No DTT) [fold]",fold activation by NO (wild type sGC [3]; with DTT),rate of cGMP accumulation [4] [nmol/mg/5 min],"Km (wild type sGC [5]; Basal, read-out: GTP-Km) [µM]","Km (wild type sGC [5]; NO, read-out: GTP-Km) [µM]","Km (wild type sGC [5]; literature (12, 30–32), read-out: range of GTP-Km measured for the recombinant sGC) [µM]","specific activity after exposure to NO (wild type sGC [5]; recombinant wild type human sGC, previous studies) [µmol/min/mg]"
Hemin [reference compound],did not confer any sensitivity to SNP,did not have any significant effect,partially restored its NO-activation,13,–,–,–,–,–,–,–,–,–,–,–,–,–,–,–,–
Wild Type: recombinant wild type human soluble guanylyl cyclase expressed in Sf9 cells,–,–,–,–,14,1.45 ± 0.1,1.4,1.41 ± 0.2,0.02 ± 0.01,0.02,0.02,0.05 ± 0.02,0.05,6,(72.5) fold,0.9,65 to 448,11 to 134,65 to 450,~1.5
